Reference: patent US20060015952A1, “Screening assays and methods of tumor treatment” (GENENTECH, INC., priority 2003, published 2006)
Marks after values point to notes of the source that are not given here.

Legend:
[1] = molecular target: T1, porcine, platelet-derived TGF-beta2 (Sus scrofa, UniProt P09858); test: Immunoprecipitation of 125I-TGF-beta2; format: binding; details: 2 μg purified monoclonal antibody
T1 construct: porcine, platelet-derived ^125I-TGF-beta2; purchased R & D Systems; host or cells: porcine platelets
T1 sequence (P09858 303-414 limits assumed): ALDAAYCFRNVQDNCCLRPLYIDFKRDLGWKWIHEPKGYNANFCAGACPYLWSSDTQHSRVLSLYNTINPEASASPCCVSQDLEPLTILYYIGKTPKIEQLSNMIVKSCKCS
Experimental: (§1) The specificity of anti-TGF-beta monoclonal antibodies was also evaluated by their ability to immunoprecipitate ^125I-rTGF-beta1 or porcine, platelet-derived ^125I-TGF-beta2 (R & D Systems, Minneapolis, Minn.; specific activity 103.4 μCi/μg). Two μg of purified monoclonal antibody was incubated with 5×10^4 CPM of ^125I-rTGF-beta1 or ^125I-TGF-beta2 for two hours at 22° C. The immunocomplexes were pelleted with protein A-SEPHAROSE™ bead-formed agarose-based gel filtration matrix (Repligen, Cambridge, Mass.) coated with rabbit anti-mouse IgG (Boehringer Mannheim Biochemicals, Indianapolis, Ind.) and subsequently washed 3× with PBST. The complexes were dissociated from the protein A-SEPHAROSE™ bead-formed agarose-based gel filtration matrix with reducing sample buffer and electrophoresed into 12% SDS-polyacrylamide gel (SDS-PAGE) and exposed to autoradiography.

TGF-beta1 = molecular target: T2, TGF-beta1 (Homo sapiens, UniProt P01137); test: Affinity determination, solid-phase radioimmunoassay / competitive inhibition, Scatchard analysis; format: binding; details: competitive inhibition assay
T2 construct: made in house
T2 sequence (P01137 279-390 limits assumed): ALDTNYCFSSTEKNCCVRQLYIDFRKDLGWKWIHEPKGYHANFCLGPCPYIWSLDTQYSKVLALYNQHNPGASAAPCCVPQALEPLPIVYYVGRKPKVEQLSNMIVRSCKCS
Experimental: The solid-phase radioimmunoassay procedure described by Mariani et al, J. Immunol. Methods, 71: 43 (1984) was used to determine the affinities of the TGF-beta-specific monoclonal antibodies. Briefly, purified anti-TGF-beta monoclonal antibodies were coated on IMMUNLON™ 2 “REMOVAWELL”™ strips in pH 9.6 carbonate buffer for 18 hours at 4° C. The wells were washed and blocked as described above. 40,000 CPM/well of either ^125I-rTGF-beta1 or porcine ^125I-TGF-beta2 (R & D Systems), in 50 μl PBSG, was added to 2-fold serial dilutions of non-labeled rTGF-beta1 or porcine TGF-beta2 ranging from 2500 to 9.7 ng/well, in 50 μl PBSG. The resulting mixture was incubated for 18 hours at 4° C. The wells were washed and counted as described above and the affinity constants determined by Scatchard analysis (Munson and Pollard, Anal. Biochem., 107: 220 (1980)), which yields similar results as the non-linear regression analysis of Antoni and Mariani, J. Immunol. Meth., 83: 61 (1985).

[2] = molecular target: T3, TGF-beta1 dimer (nonreduced) form (Homo sapiens, UniProt P01137); test: Immunoblot analysis with rTGF-beta1; format: binding
T3 construct: made in house
T3 sequence (P01137 279-390 limits assumed): as above
Experimental: One μg/lane of rTGF-beta1 was electrophoresed in 12% SDS-PAGE using non-reducing sample buffer to determine the reactivities of the various monoclonal antibodies with the dimer forms of rTGF-beta1. The peptides were transblotted onto nitrocellulose paper and probed with the appropriate monoclonal antibody conjugated with HRP. Bound antibody was visualized using the insoluble substrate 4-chloro-1-naphthol (Kirkegaard and Perry, Gathersburg, Md.). The reaction was stopped after 15 minutes by exhaustive washing with distilled water and the immunoblots were dried and photographed.

4T1 tumor cells = test: 4T1 mouse mammary carcinoma model; format: in vivo
Experimental: In a first set of experiments, 4T1 cells were derived from a single spontaneously arising mammary tumor from a BALB/cfC3H mouse. Primary 4T1 tumor cells were injected into mammary fat pads of immunocompetent BALB/c mice One week after injection, palpable primary tumors were observed. The tumor spontaneously metastasized into the lung (about two week after injection), liver and spleen (about three weeks after injection) and bone (between about 4 and 5 weeks after injection).
The animals were treated with 15 mg/kg, 25 mg/kg and 43 mg/kg doses of an anti-TGF-β antibody (2G7). Tests were carried out at day 0, 1, 2, and 1 and 2 weeks after injection of cancer cells.

F2-1282 tumor cell line = test: Trastuzumab-sensitive Her2+ breast cancer mouse model; format: in vivo; details: 25 mg/kg at day 0
Experimental: (§2) Epithelial cells from trastuzumab-sensitive (F2-1282) and trastuzumab-resistant (Fo5) tumor cell lines were injected into mammary fat pads of immunocompetent mice.

Fo5 tumor cell line = test: Trastuzumab-resistant Her2+ breast cancer mouse model; format: in vivo; details: 25 mg/kg at day 0
Experimental: as §2

Her2+ epithelial cells = test: Metastasis from Her2+ epithelial cells (non-surface lung tumors); format: in vivo, mouse
Experimental: as §2
Metastasis from such cells produces non-surface lung tumors (images not shown), the incidence and growth of which are not inhibited by anti-TGF-β antibody treatment.

PyMT tumors = test: PyMT tumor mouse model of breast cancer; format: in vivo; details: relative to IgG control
Experimental: This is a mouse model of breast cancer caused by expression of the polyoma middle T oncoprotein (PyMT) in the mammary epithelium. Primary tumor cells from PyMT tumors were injected (2 million or 5 million cells) into the mammary fat pad of a recipient mouse. The tumor developed was then passaged in a large number of further mice.

B16-F10 = test: Mouse model of metastatic melanoma, B16-F10 subline; format: in vivo; details: about 30 mg/kg
Experimental: (§3) This study used B16-F10 and B16-BL6 metastatic melanoma sublines, subcutaneously injected into immunocompetent mice, to test the effect of anti-TGF-β antibodies (2G7) on primary and secondary melanoma. In particular, C57Black 6 mice were injected subcutaneously with 500,000 tumor cells. The primary tumor developed was removed at day 14, and the mice were sacrificed around day 28. The anti-TGF-β antibody concentration was approximately 30 mg/kg. The B16-F10 subline is known to be able to colonize bone if introduced into the bone by direct injection (not as a result of subcutaneous injection). The B16-BL6 subline is metastatic to the lung.

B16-BL6 = test: Mouse model of metastatic melanoma, B16-BL6 subline; format: in vivo; details: about 30 mg/kg
Experimental: as §3

[3] = system: B16-F10 and B16-BL6 metastatic melanoma sublines; test: Mouse model of metastatic melanoma, secondary lung tumors; format: in vivo; details: approximately 30 mg/kg
Experimental: as §3

rTGF-beta1 = rTGF-beta1 (Homo sapiens, UniProt P01137); test: Immunoprecipitation of 125I-rTGF-beta1; format: binding; set-up: made in house; details: 2 μg purified monoclonal antibody
Chain of rTGF-beta1 (P01137 279-390 limits assumed): as above
Experimental: as §1

[4] = early treatment (5 weeks after injection of cells)
[5] = mice injected with tumor cells, relative to mice with tumors treated with control antibodies
[6] = mice without tumor cells, relative to control mice without tumors

B1: 2G7: murine anti-TGF-beta monoclonal antibody; VL and VH SEQ ID Nos. 1 and 2 (antibody, listed as Mus musculus, V domains shown)
VH: QVXLXQSGAELVRPGTSVKVSCKASGYAFTNYLIEWVKQRPGQGLEWIGVNNPGSGGSNYNEKFKGKATLTADKSSSTAYMQLSSLTSDDSAVYFCARSGGFYFDYWGQGTTQSPSPQPKRRAH
VL: DIMMTQSPSSLAVSAGEKVTMSCKSSQSVLYSSNQKNYLAWYQQKPGQSPKLLIYWASTRESGVPDRFTGSGSGTDFTLTISSVQAEDLAVYYCHQYLSSDTFGGGTKLEIKRTVA
modifications: not fully specified; Xaa 3, 5 Unknown amino acid
In the case of B1, the “immunoprecipitation of 125I-TGF-beta2 (autoradiograph)” value [1] is reported as “immunoprecipitated ^125I-TGF-beta2 to any measurable degree”, the “affinity of interaction between TGF-beta1 and the monoclonal antibody” value (TGF-beta1) is reported as 1.2e+08 L/mol and the “band strength in indirect immunoblot” value ([2]; nonreduced TGF-beta1 dimer) is reported as “much stronger band than either 4A11 or 12H5”. The “reactivity in indirect immunoblot with TGF-beta1 dimer” value ([2]; nonreduced form) was “reacted”, the “results of 25-mg/kg dose versus 15-mg/kg dose” value (4T1 tumor cells; 25 mg/kg vs 15 mg/kg, data not shown) was “better results than the 15-mg/kg dose” and the “results of 25-mg/kg versus 43-mg/kg doses” value (4T1 tumor cells; 25 mg/kg vs 43 mg/kg) was “no significant difference”. For the same molecule, the “size of primary tumor” value (4T1 tumor cells; 43-mg/kg dose) was “transiently decreased”, the “systemic levels of VEGF” value (4T1 tumor cells; 43-mg/kg dose) was “reduced” and the “histology scores (grade and number of lobes affected) of secondary lung tumors” value (4T1 tumor cells; [4]) was “decreased”. For the same molecule, the “volume of secondary lung tumors” value (4T1 tumor cells; [4]) was “decreased”, the “weight of secondary lung tumors” value (4T1 tumor cells; [4]) was “decreased” and the “breast tumor-induced bone destruction” value (4T1 tumor cells; early treatment (5 weeks after injection of tumor cells)) was “inhibited certain parameters of breast tumor-induced bone destruction”. The BS/BV (4T1 tumor cells; [5]) was −6.6%, the BV/TV (4T1 tumor cells; [5]) was “+14.3%” and the Mineral density (4T1 tumor cells; [5]) was “+6.3%”. The Trabecular number (4T1 tumor cells; [5]) was “+6.5%**”, the Trabecular thickness (4T1 tumor cells; [5]) was “+7.2%” and the BS/BV (4T1 tumor cells; [6]) was “ns”. For the same molecule, the BV/TV (4T1 tumor cells; [6]) was −4.8%, the Mineral density (4T1 tumor cells; [6]) was “ns” and the Trabecular number (4T1 tumor cells; [6]) was −2.8%*. The Trabecular thickness (4T1 tumor cells; [6]) was “ns”, the “size of primary tumor” value (F2-1282 tumor cell line) was “increased” and the “systemic VEGF levels” value (F2-1282 tumor cell line) was “increased”. For the same molecule, the “size of primary tumor” value (Fo5 tumor cell line) was “increased”, the “systemic VEGF levels” value (Fo5 tumor cell line) was “increased” and the “incidence and growth of non-surface lung tumors” value (Her2+ epithelial cells) was “not inhibited”. The primary tumor growth (PyMT tumors) was “decreased”, the “survival of mice with melanoma” value (B16-F10) was “increased” and the “survival of mice with melanoma” value (B16-F10; listed as anti-TGF-β antibody) was “increases”. The “survival of mice with melanoma” value (B16-BL6) was “increased”, the “survival of mice with melanoma” value (B16-BL6; listed as anti-TGF-β antibody) was “increases” and the “incidence of metastatic lung tumor” value [3] was “significantly decreased”. For the same molecule, the “number of metastatic lung tumor” value [3] was “significantly decreased”, the “incidence of metastatic lung tumor” value ([3]; listed as anti-TGF-β antibody) was “decreases” and the “number of metastatic lung tumor” value ([3]; listed as anti-TGF-β antibody) was “decreases”. For the same molecule, the “immunoprecipitation of 125I-rTGF-beta1 (autoradiograph)” value (rTGF-beta1) was “immunoprecipitated equivalent amounts”.
